Test results published in PMC6367351 (Nature Communications, 2019).
Where no end group is shown, it is not given here.

T1: Methanocaldococcus infernus Elp3, full length (Methanocaldococcus infernus, UniProt D5VRB9 1-534)
T1 chain: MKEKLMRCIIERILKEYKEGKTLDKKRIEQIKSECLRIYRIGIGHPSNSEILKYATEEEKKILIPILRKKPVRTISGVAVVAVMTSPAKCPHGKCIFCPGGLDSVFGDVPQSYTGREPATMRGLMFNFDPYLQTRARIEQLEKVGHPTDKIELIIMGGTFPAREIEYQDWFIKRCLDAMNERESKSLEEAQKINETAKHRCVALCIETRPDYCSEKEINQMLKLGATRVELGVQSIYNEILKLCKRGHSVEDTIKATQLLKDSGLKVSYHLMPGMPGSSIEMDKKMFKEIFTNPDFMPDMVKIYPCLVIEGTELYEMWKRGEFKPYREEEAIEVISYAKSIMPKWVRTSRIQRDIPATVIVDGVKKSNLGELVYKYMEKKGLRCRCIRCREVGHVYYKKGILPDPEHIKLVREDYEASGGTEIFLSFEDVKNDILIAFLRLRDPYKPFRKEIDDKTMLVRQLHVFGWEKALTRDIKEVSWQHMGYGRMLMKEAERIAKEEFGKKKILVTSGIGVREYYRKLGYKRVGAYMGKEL

T2: MinElp3 (Methanocaldococcus infernus, UniProt D5VRB9 1-534)
T2 sequence: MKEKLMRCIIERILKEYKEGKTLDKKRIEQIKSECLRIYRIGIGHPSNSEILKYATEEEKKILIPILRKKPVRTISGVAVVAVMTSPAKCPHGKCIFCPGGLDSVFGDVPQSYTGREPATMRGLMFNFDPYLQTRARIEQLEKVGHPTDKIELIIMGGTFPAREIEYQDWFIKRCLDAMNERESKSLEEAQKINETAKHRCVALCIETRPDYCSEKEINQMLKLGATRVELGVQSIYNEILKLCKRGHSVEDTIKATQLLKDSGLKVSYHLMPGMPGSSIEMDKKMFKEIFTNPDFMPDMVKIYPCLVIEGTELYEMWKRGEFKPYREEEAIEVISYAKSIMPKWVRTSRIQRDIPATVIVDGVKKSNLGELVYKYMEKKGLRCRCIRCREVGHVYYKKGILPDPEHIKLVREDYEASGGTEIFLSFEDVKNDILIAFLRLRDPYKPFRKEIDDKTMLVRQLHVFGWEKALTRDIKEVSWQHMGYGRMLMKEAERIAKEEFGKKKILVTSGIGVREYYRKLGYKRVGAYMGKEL


Columns and labels:
[1] = target: the molecule itself; assay: SEC; S200 gel filtration, 20 mM HEPES pH 7.5, 150 mM NaCl, 5 mM DTT; aerobic purification; masses of the monomeric forms confirmed by SDS-PAGE and light scattering (RALS and LALS)
[2] = target: T1, Methanocaldococcus infernus Elp3, full …; assay: ITC
MinElp3 = target: T2, MinElp3; assay: EMSA; EMSA: 25 C 30 min, 6% native PAGE at 4 C; tRNA stored in 20 mM HEPES pH 7.5, 150 mM NaCl, 5 mM DTT, 1 mM MgCl2; MST buffer not given in material; details: protein: recombinant; tags: GST tag cleaved (TEV); label: Cy5; hairpin

Binder | binding result [1] | other results
MinElp3 Δ1–19 (domain or fragment, Methanocaldococcus infernus, UniProt D5VRB9 20-534, looked up, Elp3 of Methanocaldococcus infernus without residues 1-19; Truncations were cloned into pETM30 or pETM11; The general purification goes by a GST tag that is cleaved; source: E. coli BL21 (DE3) CodonPlus-RIL, purified (GSTPrep, heparin, SEC)) GKTLDKKRIEQIKSECLRIYRIGIGHPSNSEILKYATEEEKKILIPILRKKPVRTISGVAVVAVMTSPAKCPHGKCIFCPGGLDSVFGDVPQSYTGREPATMRGLMFNFDPYLQTRARIEQLEKVGHPTDKIELIIMGGTFPAREIEYQDWFIKRCLDAMNERESKSLEEAQKINETAKHRCVALCIETRPDYCSEKEINQMLKLGATRVELGVQSIYNEILKLCKRGHSVEDTIKATQLLKDSGLKVSYHLMPGMPGSSIEMDKKMFKEIFTNPDFMPDMVKIYPCLVIEGTELYEMWKRGEFKPYREEEAIEVISYAKSIMPKWVRTSRIQRDIPATVIVDGVKKSNLGELVYKYMEKKGLRCRCIRCREVGHVYYKKGILPDPEHIKLVREDYEASGGTEIFLSFEDVKNDILIAFLRLRDPYKPFRKEIDDKTMLVRQLHVFGWEKALTRDIKEVSWQHMGYGRMLMKEAERIAKEEFGKKKILVTSGIGVREYYRKLGYKRVGAYMGKEL | binds | –
MinElp3 Δ1–41 (domain or fragment, Methanocaldococcus infernus, UniProt D5VRB9 42-534, looked up, Elp3 of Methanocaldococcus infernus without residues 1-41; Truncations were cloned into pETM30 or pETM11; source: E. coli BL21 (DE3) CodonPlus-RIL, purified (GSTPrep, heparin, SEC)) GIGHPSNSEILKYATEEEKKILIPILRKKPVRTISGVAVVAVMTSPAKCPHGKCIFCPGGLDSVFGDVPQSYTGREPATMRGLMFNFDPYLQTRARIEQLEKVGHPTDKIELIIMGGTFPAREIEYQDWFIKRCLDAMNERESKSLEEAQKINETAKHRCVALCIETRPDYCSEKEINQMLKLGATRVELGVQSIYNEILKLCKRGHSVEDTIKATQLLKDSGLKVSYHLMPGMPGSSIEMDKKMFKEIFTNPDFMPDMVKIYPCLVIEGTELYEMWKRGEFKPYREEEAIEVISYAKSIMPKWVRTSRIQRDIPATVIVDGVKKSNLGELVYKYMEKKGLRCRCIRCREVGHVYYKKGILPDPEHIKLVREDYEASGGTEIFLSFEDVKNDILIAFLRLRDPYKPFRKEIDDKTMLVRQLHVFGWEKALTRDIKEVSWQHMGYGRMLMKEAERIAKEEFGKKKILVTSGIGVREYYRKLGYKRVGAYMGKEL | binds | –
YMPSDKTIGG-NH2 (not fully specified (N-terminus)) [alpha-tubulin peptide Tubulin(36–44) with an added N-terminal tyrosine] | – | Kd [2]: > 500 µM
MinElp3 Δ1–54 (domain or fragment, Methanocaldococcus infernus, UniProt D5VRB9 55-534, looked up, Elp3 of Methanocaldococcus infernus without residues 1-54; Truncations were cloned into pETM30 or pETM11; source: E. coli BL21 (DE3) CodonPlus-RIL, purified (GSTPrep, heparin, SEC)) ATEEEKKILIPILRKKPVRTISGVAVVAVMTSPAKCPHGKCIFCPGGLDSVFGDVPQSYTGREPATMRGLMFNFDPYLQTRARIEQLEKVGHPTDKIELIIMGGTFPAREIEYQDWFIKRCLDAMNERESKSLEEAQKINETAKHRCVALCIETRPDYCSEKEINQMLKLGATRVELGVQSIYNEILKLCKRGHSVEDTIKATQLLKDSGLKVSYHLMPGMPGSSIEMDKKMFKEIFTNPDFMPDMVKIYPCLVIEGTELYEMWKRGEFKPYREEEAIEVISYAKSIMPKWVRTSRIQRDIPATVIVDGVKKSNLGELVYKYMEKKGLRCRCIRCREVGHVYYKKGILPDPEHIKLVREDYEASGGTEIFLSFEDVKNDILIAFLRLRDPYKPFRKEIDDKTMLVRQLHVFGWEKALTRDIKEVSWQHMGYGRMLMKEAERIAKEEFGKKKILVTSGIGVREYYRKLGYKRVGAYMGKEL | binds | –
GACAGACUUGAAAUCUGUU (structured_RNA) [ASL yeast tRNASerUGA] | – | binding result (MinElp3): binds
MinElp3 Δ1–46 (domain or fragment, Methanocaldococcus infernus, UniProt D5VRB9 47-534, looked up, Elp3 of Methanocaldococcus infernus without residues 1-46; Truncations were cloned into pETM30 or pETM11; source: E. coli BL21 (DE3) CodonPlus-RIL, purified (GSTPrep, heparin, SEC)) SNSEILKYATEEEKKILIPILRKKPVRTISGVAVVAVMTSPAKCPHGKCIFCPGGLDSVFGDVPQSYTGREPATMRGLMFNFDPYLQTRARIEQLEKVGHPTDKIELIIMGGTFPAREIEYQDWFIKRCLDAMNERESKSLEEAQKINETAKHRCVALCIETRPDYCSEKEINQMLKLGATRVELGVQSIYNEILKLCKRGHSVEDTIKATQLLKDSGLKVSYHLMPGMPGSSIEMDKKMFKEIFTNPDFMPDMVKIYPCLVIEGTELYEMWKRGEFKPYREEEAIEVISYAKSIMPKWVRTSRIQRDIPATVIVDGVKKSNLGELVYKYMEKKGLRCRCIRCREVGHVYYKKGILPDPEHIKLVREDYEASGGTEIFLSFEDVKNDILIAFLRLRDPYKPFRKEIDDKTMLVRQLHVFGWEKALTRDIKEVSWQHMGYGRMLMKEAERIAKEEFGKKKILVTSGIGVREYYRKLGYKRVGAYMGKEL | binds | –
MinElp3 Δ1–68 (domain or fragment, Methanocaldococcus infernus, UniProt D5VRB9 69-534, looked up, Elp3 of Methanocaldococcus infernus without residues 1-68; Truncations were cloned into pETM30 or pETM11; source: E. coli BL21 (DE3) CodonPlus-RIL, purified (GSTPrep, heparin, SEC)) KKPVRTISGVAVVAVMTSPAKCPHGKCIFCPGGLDSVFGDVPQSYTGREPATMRGLMFNFDPYLQTRARIEQLEKVGHPTDKIELIIMGGTFPAREIEYQDWFIKRCLDAMNERESKSLEEAQKINETAKHRCVALCIETRPDYCSEKEINQMLKLGATRVELGVQSIYNEILKLCKRGHSVEDTIKATQLLKDSGLKVSYHLMPGMPGSSIEMDKKMFKEIFTNPDFMPDMVKIYPCLVIEGTELYEMWKRGEFKPYREEEAIEVISYAKSIMPKWVRTSRIQRDIPATVIVDGVKKSNLGELVYKYMEKKGLRCRCIRCREVGHVYYKKGILPDPEHIKLVREDYEASGGTEIFLSFEDVKNDILIAFLRLRDPYKPFRKEIDDKTMLVRQLHVFGWEKALTRDIKEVSWQHMGYGRMLMKEAERIAKEEFGKKKILVTSGIGVREYYRKLGYKRVGAYMGKEL | binds | –
